The source of these data is PMC8698322, “Autophagy Is Involved in the Viability of Overexpressing Thioredoxin o1 Tobacco BY-2 Cells under Oxidative Conditions” (Antioxidants, 2021).

This data set concerns the molecule itself. As to the kind of experiment: SDS-PAGE (reductant-free sample buffer) and Western blot with anti-His; recombinant HsATG4B treated with 1 mM or 3 mM H2O2 for 5 min at 25 °C in TBSK buffer (50 mM Tris-HCl, 140 mM NaCl, 30 mM KCl, pH 8.0); high-molecular-weight signal on the blot.

B1: recombinant human ATG4B, His-tagged (His-HsATG4B) (enzyme, UniProt Q9Y4P1 1-393, looked up)
chain: MDAATLTYDTLRFAEFEDFPETSEPVWILGRKYSIFTEKDEILSDVASRLWFTYRKNFPAIGGTGPTSDTGWGCMLRCGQMIFAQALVCRHLGRDWRWTQRKRQPDSYFSVLNAFIDRKDSYYSIHQIAQMGVGEGKSIGQWYGPNTVAQVLKKLAVFDTWSSLAVHIAMDNTVVMEEIRRLCRTSVPCAGATAFPADSDRHCNGFPAGAEVTNRPSPWRPLVLLIPLRLGLTDINEAYVETLKHCFMMPQSLGVIGGKPNSAHYFIGYVGEELIYLDPHTTQPAVEPTDGCFIPDESFHCQHPPCRMSIAELDPSIAVGFFCKTEDDFNDWCQQVKKLSLLGGALPMFELVELQPSHLACPDVLNLSLDSSDVERLERFFDSEDEDFEILSL
notes: human cysteine protease ATG4B, recombinant, bought; printed size with His tag 47 kDa; No catalogue number is printed; source: bought: Abcam
Regarding B1, the binding result was “binds”.
